Target: monoclonal anti-S1 antibody 1B7
Assay: competition RIA: 1B7 coated on plate, 125I-PT displaced by unlabelled toxin

“PT-9K (from UniProt P04978 28-226; P04979 29-227; P0A3R5 43-152; P04981 35-133)” showed a Ka of 8.9e+08 M⁻¹.
